This note sets out measurements from publication PMC3176149, “Application of Celluspots peptide arrays for the analysis of the binding specificity of epigenetic reading domains to modified histone tails” (BMC Biochemistry, 2011).

As usually defined, the Kd is a measure of binding affinity in units of concentration. A low value points to a tighter complex.

In the assay the target is FITC-coupled H3K9me3-S10ph peptide (amino acids 1-19) (UniProt P68431). The experiment in a line: fluorescence polarisation; fluorescence depolarization in solution, purified FITC-coupled H3 1-19 peptides, Varian Carry Eclipse spectrophotometer, as described [40]; fit to a binary binding equilibrium.

As to “MPP8 Chromo domain (M-phase phosphoprotein 8), GST fusion (from UniProt Q99549 58-112) (domain or fragment)”, the Kd was above 50 µM.
